The text below walks through data of publication PMC4239663, “Structural basis for extracellular cis and trans RPTPσ signal competition in synaptogenesis” (Nature Communications, 2014).

Assay [1] addresses T1, chicken RPTPσ N73S+S74N (RPTPδ-like) Ig1–3, C-terminal Avitag (chicken, UniProt F1NWE3 29-316, N73S | S74N, biotin on the Avitag (enzymatic)).
T1 construct: chicken RPTPσ Ig1–3, amino acids 29–316 of NCBI NM_205407.1; not shown: Avitag (BirA recognition site), C-terminal, kept
T1 sequence (looked up): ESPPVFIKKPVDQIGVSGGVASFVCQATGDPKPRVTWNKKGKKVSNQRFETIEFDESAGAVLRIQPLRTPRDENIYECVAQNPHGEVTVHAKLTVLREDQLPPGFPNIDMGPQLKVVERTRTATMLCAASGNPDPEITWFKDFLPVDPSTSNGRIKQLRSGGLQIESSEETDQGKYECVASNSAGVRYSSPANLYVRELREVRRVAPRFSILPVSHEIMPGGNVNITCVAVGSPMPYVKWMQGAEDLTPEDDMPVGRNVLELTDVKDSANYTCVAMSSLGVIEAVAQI
As to the kind of experiment: SPR; equilibrium; biotinylated chicken RPTPσ Ig1–3 (wild type or mutants) immobilized on streptavidin-coated CM5 chips, chicken TrkC LRRIg1 as analyte; 10 mM HEPES pH 7.5, 150 mM NaCl, 0.01% Tween 20, 25 °C. The conditions noted are these: both partners purified. A general note: Surface plasmon resonance follows binding to a sensor surface in real time, without labels.

The target of assay [2] is T2, chicken RPTPσ Ig1–3, C-terminal Avitag, immobilized (chicken, UniProt F1NWE3 29-316, biotin on the Avitag (enzymatic)).
T2 construct: chicken RPTPσ Ig1–3, amino acids 29–316 of NCBI NM_205407.1; not shown: Avitag (BirA recognition site), C-terminal, kept
T2 sequence (looked up): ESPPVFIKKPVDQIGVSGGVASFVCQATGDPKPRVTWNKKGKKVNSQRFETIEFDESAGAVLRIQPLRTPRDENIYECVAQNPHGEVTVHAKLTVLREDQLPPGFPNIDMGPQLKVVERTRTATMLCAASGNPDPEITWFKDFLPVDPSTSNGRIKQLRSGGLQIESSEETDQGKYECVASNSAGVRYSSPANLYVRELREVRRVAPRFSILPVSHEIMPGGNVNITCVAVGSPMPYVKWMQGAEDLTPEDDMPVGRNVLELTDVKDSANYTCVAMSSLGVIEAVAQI
The assay is described as above. The note with it: both partners purified.

Where only a bound is given, the exact number is not on record here.

B1: chicken TrkC LRRIg1 (analyte of Fig. 3c) (domain or fragment)
chain: CPANCLCSKTDINCKKPDDGNLFPLLEGQDSGSSNGNTSINITDISRNITSIHIENWKNLQTLNAVDMELYTGLQRLTIRNSGLRNIQPRAFAKNPHLRYIDLSGNRLTTLSWQLFQTLRLFDLRLERNPFQCSCDIRWIQLWQEKGEANLQSQQLHCMNLDTAVILLRNMNITQCDLPEISVSHVNLTVREGENAVITCQGSGSPLPDVDWTVADLHSINTHQTNLQWTNVHAIQLTLVNVTSEDNGFLLTCIAENVVGMSQASVLLTVY
Take B1: the values for the Kd in assay [1] and in assay [2] were greater than 21 µM and 3.5 µM, respectively.
